Laboratory results taken from the supplement of paper PMC9170038.

Test system: MS2 coat protein
Assay: apparent KD of MS2 coat protein; designed switch direction (-1 OFF switch, 1 ON switch): -1; higher = weaker reporter binding
Outline: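 Apparent KD, taken as the median over clusters for each design, was obtained by curve-fitting normalised cluster fluorescence. Designed RNA switches had been transcribed on Illumina chips by stalled E. coli RNA polymerase and titrated with SNAP-549-labelled MS2 coat protein, doubling from 0.7 or 1.5 nM to 3 µM.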

[1] = input ligand: microRNA oligo, concentration not stated
[2] = Eterna round: R95, input ligand: microRNA oligo, concentration not stated
[3] = Eterna round: R95, input ligand: FMN 200 uM
[4] = Eterna round: R95, input ligand: none

Sequence | apparent KD of MS2 coat protein (input ligand: FMN 200 uM) [µM] | apparent KD of MS2 coat protein [1] [µM] | apparent KD of MS2 coat protein (input ligand: none) [µM] | apparent KD of MS2 coat protein [2] [µM] | apparent KD of MS2 coat protein [3] [µM] | apparent KD of MS2 coat protein [4] [µM]
UAGUUAAUCACAGGAUAUCGCCUCUUAUUACAUGAGGAUCACCCAUGUUUAGUUAGUUACAUGUUCGAGAAGGGUGUUGUAGUU [JR_ExcNG2_Sub042] (Eterna round: R96, puzzle: Exclusion NG 2) | 0.714 | 0.408 | 0.579 |  |  | 
CUUUUGUGAGGAUAUCAGUAGUAAUAAAAUAAAAUUACUACUGAGAAGGCACAUGAGGAUCACCCAUGUUCCUC [salish99_ex4_r3_018] (puzzle: Exclusion 4) |  |  |  | 0.0376 |  | 
UAUUAGCAAGUAAGAUCCCACAUGAGGAUCACCCAUGUGCUCGUCUUAUAAGGUACUGUGACGAUAGUCACGGUACC [Mat - Sensor, turn-off var - Eli Mod - D44] (Eterna round: R97, puzzle: Sensor, turn-off variant 1) | 0.0183 |  | 0.0178 |  |  | 
AGAUAGUGCUGAGGAUAUCUUAAUAGAAAGAAUAGAGAAGGCGGACAUGAGGAUCACCCAUGUGAGGUCUUGAGACUACAUGGU [Prohibition 36 - Jieux - Exclusion NG 1] (Eterna round: R96, puzzle: Exclusion NG 1) | 0.366 | 0.0716 | 0.135 |  |  | 
GAUUGACAUGAGGAUCACCCAUGUGAGGAUAUCGGCUGGACCGUGUUGGCUUCCGUCUCGAGAAGGCGCAUAGG [Exclusion 1 V43] (Eterna round: R96, puzzle: Exclusion 1) | 0.0435 | 0.0239 | 0.0268 |  |  | 
AGCUAACGAACAGGAUAUCCAAAGCGAUAGCAGGGAGAAGGGUUCAGAACUUGAGGAUCACCCAAGUGGGCUGAGCUCGGGAAA [Mutated MS2 EX1.3] (Eterna round: R96, puzzle: Exclusion NG 1) | 0.012 | 0.0126 | 0.0209 |  |  | 
UUUUAACAUGAGGAUCACCCAUGUGAGGAUAUCGAUAUUUAUAUUAAUAUUAAUAAAACGAGAAGGCACAUUUU [JMF 7] (puzzle: Exclusion 1) |  |  |  | 0.0652 |  | 
CGGUCACUAGGAUAUCAGGAAAACUACAUGAGGAUCACCCAUGUACUGAGUGUAGGAGACUGAGAAGGAGUUCUUA [EX5 C.4] (Eterna round: R97, puzzle: Exclusion 5) | 0.0315 |  | 0.0223 |  |  | 
GCCCGGGCAGGAUAUACAAGCUAGUGCUGAAAAGUGCUAGUACAUGAGGAUCACCCAUGUAGAAGGGCCCGGGC [-37.6, -35.7 kcal, A 28% 2bis] (Eterna round: R97, puzzle: Exclusion 2) | 0.0305 |  | 0.0181 |  |  | 
GCGAUGUGAGGAUAUACAAGGUGUGAGAGUGCUUGAACGUAACAUGAGGAUCACCCAUGUAGAAGGUAUGUGAU [Eternabot (L1) Solution 29] (Eterna round: R97, puzzle: Exclusion 2) | 0.109 |  | 0.181 |  |  | 
AAAACACAUGAGGAUCACCCAUGUGAGGAUAUGUCCAUAUUCGGCAAAUCGGAUAUGGACAGAAGGCACAUAAA [JR_Exclusion1_Sub014] (puzzle: Exclusion 1) |  |  |  | 0.0489 | 0.0547 | 0.0397
UCGCUGCGAGGAUAUACGUUUGCGCGUUUUCGUUUGCGCGUACAUGAGGAUCACCCAUGUAGAAGGCGCGCGGC [Apr-15 SS2-11] (puzzle: Exclusion 2) |  |  |  | 0.0122 |  | 
CAACUGCAUGUGAGGAUAUGCACCGGCCAAGCCGGGCAGAAGGCACAUGAGGAUCACCCAUGUCAUCCUAUUGC [Esusgeraon] (puzzle: Brourd's mod of Exclusion 4) |  |  |  | 0.0124 |  | 
ACAUGAGGAUCACCCAUGUUUGGCUGGUUUUCUCCGGCUGUCGAGGAUAUAGUCCGGUAUCCGCGCUAGAAGGUGAGGGCUGGC [Aenatbe mod 5] (Eterna round: R96, puzzle: Exclusion NG 3) | 0.0145 | 0.0131 | 0.0204 |  |  | 
GGAGGAAGAGAGGAUAUGCACUCAAGGAGAAAAGCAGAAGGUUCAACAUGAGGAUCACCCAUGUAUGAUCCUCA [AK-MS2ROC-r4-exclusion6-3] (Eterna round: R97, puzzle: Exclusion 6) | 0.247 |  | 0.197 |  |  | 
AGUACUAACACGAAAGUGUUAGUACAAUAAGCUUGUGAAACAUGAGGAUCACCCAUGUCCUCCUAAGCUCGUCUUAU [salish99_TOv2_r3_049] (puzzle: Sensor v3, turn-off variant 2) |  |  |  | 0.14 | 0.0454 | 0.0432
CGGUGUAAGUCAGGAUAUGAGCGCAACUGACGAUCAGAAGGGACACAUGAGGAUCACCCAUGUGAUUUCUCAAUAUUAUACAUC [Prohibition 90 - Jieux - Exclusion NG 1] (Eterna round: R96, puzzle: Exclusion NG 1) | 0.0307 | 0.0144 | 0.0231 |  |  | 

Sequence | apparent KD of MS2 coat protein (input ligand: FMN 200 uM) [µM] | apparent KD of MS2 coat protein [1] [µM] | apparent KD of MS2 coat protein (input ligand: none) [µM] | apparent KD of MS2 coat protein [2] [µM] | apparent KD of MS2 coat protein [3] [µM] | apparent KD of MS2 coat protein [4] [µM]
GCCGAUUAAGUCAGGAUAUACCUAUGGAUACAUAGGUAGAAGGGACAUGAGGAUCACCCAUGUUCCUCAGCGGC [Fiskers BMX 4 - 14] (puzzle: Brourd's mod of Exclusion 4) |  |  |  | 0.0145 |  | 
AAUUAAGCAAGCAGAUCCCACAUGAGGAUCACCCAUGUGCUCGUCUUAUAAGGUACUGUGACAAAAGUCACGGUACC [Mat - Sensor, turn-off var - Eli Mod - D73] (Eterna round: R97, puzzle: Sensor, turn-off variant 1) | 0.108 |  | 0.117 |  |  | 
UUAAGCUUUGAGAUCCUUAACAUGAGGAUCACCCAUGUUCGUCUUAUGAUGGUCUGAUCCCUGAGGAUCGGACCGUA [Mat - Sensor v3 - turn-off var 1 - JL Mod - D4] (puzzle: Sensor v3, turn-off variant 1) |  |  |  | 0.0112 | 0.18 | 0.219
AAAAGGAUAGGAUAUGCUCUAGGACACUUGAGGAUCACCCAAGUGUCGGCAAGGUCCUAGGCAGAAGGAUCUGGCA [Onordibi] (Eterna round: R97, puzzle: Exclusion 5) | 0.0883 |  | 0.0299 |  |  | 
AAUUGCUAGCCGAUCCUCCACAUGAGGAUCACCCAUGUGCUCGUCUUGUAAUGUGCUAUCACGAAAGUGAUAGUACA [Sensor v3, turn-off variant 1 (MOD of Eli's v1-59 v.4)] (puzzle: Sensor v3, turn-off variant 1) |  |  |  | 0.0134 | 0.413 | 0.315
AGUAACAGAGGAUAUACUGUUUUAUGUAUUUAUUAUUUUAAACAUGAGGAUCACCCAUGUAGAAGGCUGAAUGA [JMF 98] (puzzle: Exclusion 2) |  |  |  | 0.0224 |  | 
UUCACAUGGACAUAAGAUCACAUGAGGAUCACCCAUGUGAAUAACAAGCUUUUUGUUCGUCUUAUGUCCAAUAAUAG [Stov1/14-B2] (Eterna round: R97, puzzle: Sensor, turn-off variant 1) | 0.0137 |  | 0.0135 |  |  | 
AUUGUUUGAUACCUCUAAUACAUGAGGAUCACCCAUGUUAUCGAGGAUAUGCAGUAGAGUGGAGAGCAGAAGGCGAAGUAAGUG [JR_ExcNG3_Sub028] (Eterna round: R96, puzzle: Exclusion NG 3) | 0.027 | 0.0144 | 0.0137 |  |  | 
ACUUAUUGAGGAUAUACAGAUUAUUACAUGAGGAUCACCCAUGUUCUUCAAUGUAUAUAUGUAGAAGGCAGAAGAU [Mat - Exclusion 5 - JL Mod - D15] (Eterna round: R97, puzzle: Exclusion 5) | 0.177 |  | 0.0575 |  |  | 
CUUUUGUGAGGAUAUUGGUAGUAAAUAAAUAAAAUUACUACUGAGAAGGCACAUGAGGAUCACCCAUGUUCCUC [salish99_ex4_r3_070] (puzzle: Exclusion 4) |  |  |  | 0.0307 |  | 
AAUAACAUGUUGAUCAAAUACAUGAGGAUCACCCAUGUAAGCUUUUUGUUCGUAGAUUAACACUAAUAAUAAUAAUA [Stov1new/2-B] (Eterna round: R97, puzzle: Sensor, turn-off variant 1) | 0.0158 |  | 0.0167 |  |  | 
AAAAAGCUGAGAGGAUAUGGUGCCGAAACGGUGCUAGAAGGCUUUGCAAAAAAACAUGAGGAUCACCCAUGUUCAUGUAGAGAA [AK ExNG1-1.2] (Eterna round: R96, puzzle: Exclusion NG 1) | 0.0158 | 0.0118 | 0.0196 |  |  | 
GACUGCCGAGGAUAUACAUGAGGAUCACCCAUGUGCUUCAGCAUUUUUUAAUGCAUGGGUAGAAGGCGGUAGUU [LRO-Excl3-14] (puzzle: Exclusion 3) |  |  |  | 0.0315 |  | 
AUCAGCUCGUGAGGAUAUACAUGCGUGCUUCGGCACGUAUGAUAGAUCACAUGAGGAUCACCCAUGUAGAAGGCACGAGCUGAU [ENG2/4-A3] (Eterna round: R96, puzzle: Exclusion NG 2) | 0.0151 | 0.0121 | 0.0134 |  |  | 
GAAAAGGUAGGAUAUACGAAAAGAAAGGGUAGAAAGAAAACACAUGAGGAUCACCCAUGUAGAAGGACCAAAAG [salish99_ex2_r3_095] (puzzle: Exclusion 2) |  |  |  | 0.0146 | 0.0373 | 0.0268
AGCUAGUGCCGAGGAUAUACAUGAGGAUCACCCAUGUAGGCGUGAGGCUUUGUCUCACGCGAGAUGUAGAAGGCGGCGUUGGCA [JL ENG2 1.52] (Eterna round: R96, puzzle: Exclusion NG 2) | 0.0605 | 0.0141 | 0.0217 |  |  | 
ACAAAGCUAGGAUAUGUGGCGGAUAACAUGAGGAUCACCCAUGUGAGCUCACAGAUCCGAGCAGAAGGAGCGAUUA [EX5 A.10] (Eterna round: R97, puzzle: Exclusion 5) | 0.0153 |  | 0.0146 |  |  | 
